Data taken from patent US20150274826A1 (ARCH ONCOLOGY, published 2015).

T1: mouse CD47 (mouse, UniProt Q61735 19-303)
T1 construct: whole, on cells; also called CD47 on mouse RBCs; CD47 on 4T1 cells
T1 sequence (looked up): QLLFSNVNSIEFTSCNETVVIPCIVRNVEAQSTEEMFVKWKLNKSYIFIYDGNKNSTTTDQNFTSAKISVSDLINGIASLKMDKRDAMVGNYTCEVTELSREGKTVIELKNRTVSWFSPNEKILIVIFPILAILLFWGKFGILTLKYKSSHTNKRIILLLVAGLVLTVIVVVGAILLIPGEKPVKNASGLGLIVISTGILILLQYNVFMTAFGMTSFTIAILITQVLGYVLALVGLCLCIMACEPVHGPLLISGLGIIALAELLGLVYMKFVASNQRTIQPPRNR

T2: rat CD47 (rat, UniProt P97829 19-303)
T2 construct: whole, on cells; also called CD47 on rat RBCs
T2 sequence (looked up): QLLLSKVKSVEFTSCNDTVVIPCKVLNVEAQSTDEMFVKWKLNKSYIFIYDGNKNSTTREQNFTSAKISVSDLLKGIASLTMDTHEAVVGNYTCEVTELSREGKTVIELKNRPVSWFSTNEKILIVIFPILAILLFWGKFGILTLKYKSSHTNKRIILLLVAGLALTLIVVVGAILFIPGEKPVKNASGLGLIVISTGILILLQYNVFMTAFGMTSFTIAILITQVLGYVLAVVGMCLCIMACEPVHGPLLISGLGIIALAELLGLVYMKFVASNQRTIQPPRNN

T3: pig CD47 (pig, UniProt Q9GKE8 19-303)
T3 construct: whole, on cells; also called CD47 on porcine RBCs
T3 sequence (looked up): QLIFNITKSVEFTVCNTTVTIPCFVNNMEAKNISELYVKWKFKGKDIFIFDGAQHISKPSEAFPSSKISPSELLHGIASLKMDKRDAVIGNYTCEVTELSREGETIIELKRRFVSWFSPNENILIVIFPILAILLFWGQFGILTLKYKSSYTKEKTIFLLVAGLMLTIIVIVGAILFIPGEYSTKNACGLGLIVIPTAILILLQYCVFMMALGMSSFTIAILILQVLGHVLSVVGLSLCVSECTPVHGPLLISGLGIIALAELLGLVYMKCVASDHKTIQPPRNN

T4: dog CD47 (dog, UniProt A0A8I3PM61 19-310)
T4 construct: also called CD47 on dog RBCs
T4 sequence: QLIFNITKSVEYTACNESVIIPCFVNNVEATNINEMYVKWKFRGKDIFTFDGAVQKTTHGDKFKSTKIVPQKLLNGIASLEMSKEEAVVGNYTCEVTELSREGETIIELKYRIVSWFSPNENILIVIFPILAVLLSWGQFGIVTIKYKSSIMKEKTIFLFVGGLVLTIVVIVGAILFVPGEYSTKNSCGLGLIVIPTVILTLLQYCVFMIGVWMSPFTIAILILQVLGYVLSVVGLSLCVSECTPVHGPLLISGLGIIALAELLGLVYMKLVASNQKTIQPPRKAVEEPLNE

B1: Clone 14.1 (hum14 IgG1 N297Q) (antibody)
heavy: QVQLQESGPGLVKPSQTLSLTCTVSGYTFTNYYVFWVRQARGQRLEWIGDINPVNGDTNFNEKFKNRVTISADKSISTAYLQWSSLKASDTAMYYCARGGYTMDYWGQGTLVTVSSASTKGPSVFPLAPSSKSTSGGTAALGCLVKDYFPEPVTVSWNSGALTSGVHTFPAVLQSSGLYSLSSVVTVPSSSLGTQTYICNVNHKPSNTKVDKKVEPKSCDKTHTCPPCPAPELLGGPSVFLFPPKPKDTLMISRTPEVTCVVVDVSHEDPEVKFNWYVDGVEVHNAKTKPREEQYQSTYRVVSVLTVLHQDWLNGKEYKCKVSNKALPAPIEKTISKAKGQPREPQVYTLPPSR
light: DVVMTQSPLSLPVTLGQPASISCRSSQSLVHSNGNTYLHWYQQKPGKAPKLLIYKVSYRFSGVPDRFSGSGSGTDFTLKISRVEAEDVGVYYCSQNTHVPRTFGQGTKVEIKRTVAAPSVFIFPPSDEQLKSGTASVVCLLNNFYPREAKVQWKVDNALQSGNSQESVTEQDSKDSTYSLSSTLTLSKADYEKHKVYACEVTHQGLSSPVTKSFNRGEC
notes: IgG1 N297Q
B2: Clone 1.2 (hum01 IgG4 S228P L235E) (antibody)
heavy: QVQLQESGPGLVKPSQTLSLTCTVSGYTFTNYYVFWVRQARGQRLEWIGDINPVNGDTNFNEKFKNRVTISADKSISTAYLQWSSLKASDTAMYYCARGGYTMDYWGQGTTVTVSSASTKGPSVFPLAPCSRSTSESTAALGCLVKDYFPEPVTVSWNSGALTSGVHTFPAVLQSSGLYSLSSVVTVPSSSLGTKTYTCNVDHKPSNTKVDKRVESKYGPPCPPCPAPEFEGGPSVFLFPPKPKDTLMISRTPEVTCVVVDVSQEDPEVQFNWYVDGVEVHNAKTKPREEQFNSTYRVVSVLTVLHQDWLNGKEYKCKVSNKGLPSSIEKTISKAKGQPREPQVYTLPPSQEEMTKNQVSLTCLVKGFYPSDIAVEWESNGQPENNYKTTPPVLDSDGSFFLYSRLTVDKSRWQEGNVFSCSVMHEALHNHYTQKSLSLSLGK
light: DIVMTQTPLSLPVTPGEPASISCRSSQSLVHSNGNTYLHWYQQKPGKAPKLLIYKVSYRFSGVPDRFSGSGSGTDFTLKISRVEAEDVGVYYCSQNTHVPRTFGQGTKVEIKRTVAAPSVFIFPPSDEQLKSGTASVVCLLNNFYPREAKVQWKVDNALQSGNSQESVTEQDSKDSTYSLSSTLTLSKADYEKHKVYACEVTHQGLSSPVTKSFNRGEC
notes: IgG4 S228P L235E version of Clone 1; also called pVxK7b-037-hum01-HC-IgG4 S228P L235E-Pro
B3: Clone 13.2 (hum 13 IgG4 S228P L235E) (antibody)
heavy: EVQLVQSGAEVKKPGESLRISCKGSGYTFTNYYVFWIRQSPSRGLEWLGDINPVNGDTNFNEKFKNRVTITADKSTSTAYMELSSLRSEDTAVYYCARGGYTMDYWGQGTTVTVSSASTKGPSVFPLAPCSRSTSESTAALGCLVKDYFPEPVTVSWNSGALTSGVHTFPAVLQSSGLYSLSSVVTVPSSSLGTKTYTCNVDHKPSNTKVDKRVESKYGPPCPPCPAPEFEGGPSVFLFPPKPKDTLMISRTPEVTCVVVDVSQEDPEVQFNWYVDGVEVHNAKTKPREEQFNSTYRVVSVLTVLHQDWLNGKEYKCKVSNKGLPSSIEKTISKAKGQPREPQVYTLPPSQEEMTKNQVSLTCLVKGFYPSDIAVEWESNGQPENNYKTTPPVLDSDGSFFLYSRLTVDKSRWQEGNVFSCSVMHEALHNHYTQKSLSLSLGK
light: DIVMTQTPLSLPVTPGEPASISCRSSQSLVHSNGNTYLHWYQQKPGKAPKLLIYKVSYRFSGVPDRFSGSGSGTDFTLKISRVEAEDVGVYYCSQNTHVPRTFGQGTKVEIKRTVAAPSVFIFPPSDEQLKSGTASVVCLLNNFYPREAKVQWKVDNALQSGNSQESVTEQDSKDSTYSLSSTLTLSKADYEKHKVYACEVTHQGLSSPVTKSFNRGEC
notes: IgG4 S228P L235E version of Clone 13
B4: Clone 3.1 (hum03 IgG1 N297Q) (antibody)
heavy: EVQLVQSGAEVKKPGESLRISCKGSGYTFTNYYVFWVRQARGQRLEWIGDINPVNGDTNFNEKFKNRVTITADKSTSTAYMELSSLRSEDTAVYYCARGGYTMDYWGQGTLVTVSSASTKGPSVFPLAPSSKSTSGGTAALGCLVKDYFPEPVTVSWNSGALTSGVHTFPAVLQSSGLYSLSSVVTVPSSSLGTQTYICNVNHKPSNTKVDKKVEPKSCDKTHTCPPCPAPELLGGPSVFLFPPKPKDTLMISRTPEVTCVVVDVSHEDPEVKFNWYVDGVEVHNAKTKPREEQYQSTYRVVSVLTVLHQDWLNGKEYKCKVSNKALPAPIEKTISKAKGQPREPQVYTLPPSR
light: DVVMTQSPLSLPVTLGQPASISCRSSQSLVHSNGNTYLHWYQQKPGKAPKLLIYKVSYRFSGVPDRFSGSGSGTDFTLKISRVEAEDVGVYYCSQNTHVPRTFGQGTKVEIKRTVAAPSVFIFPPSDEQLKSGTASVVCLLNNFYPREAKVQWKVDNALQSGNSQESVTEQDSKDSTYSLSSTLTLSKADYEKHKVYACEVTHQGLSSPVTKSFNRGEC
notes: IgG1 N297Q
B5: Clone 14.2 (hum14 IgG4 S228P L235E) (antibody)
heavy: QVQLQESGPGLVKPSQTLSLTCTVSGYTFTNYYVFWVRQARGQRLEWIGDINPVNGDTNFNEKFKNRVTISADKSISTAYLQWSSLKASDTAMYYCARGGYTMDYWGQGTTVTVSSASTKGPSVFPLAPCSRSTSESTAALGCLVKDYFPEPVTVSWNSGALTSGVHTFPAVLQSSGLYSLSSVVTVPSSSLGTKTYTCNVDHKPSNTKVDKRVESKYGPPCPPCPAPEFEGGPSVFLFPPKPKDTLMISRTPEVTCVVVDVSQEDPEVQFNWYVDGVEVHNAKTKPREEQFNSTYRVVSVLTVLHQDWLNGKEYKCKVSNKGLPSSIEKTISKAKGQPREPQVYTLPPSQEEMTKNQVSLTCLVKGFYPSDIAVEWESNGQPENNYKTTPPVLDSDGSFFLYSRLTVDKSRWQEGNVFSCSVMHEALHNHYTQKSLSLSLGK
light: DVVMTQSPLSLPVTLGQPASISCRSSQSLVHSNGNTYLHWYQQKPGKAPKLLIYKVSYRFSGVPDRFSGSGSGTDFTLKISRVEAEDVGVYYCSQNTHVPRTFGQGTKVEIKRTVAAPSVFIFPPSDEQLKSGTASVVCLLNNFYPREAKVQWKVDNALQSGNSQESVTEQDSKDSTYSLSSTLTLSKADYEKHKVYACEVTHQGLSSPVTKSFNRGEC
notes: IgG4 S228P L235E
B6: Clone 18 (pVxK7b-037-hum18-LC / pVxK7b-037-hum18-HC) (antibody, human IgG1, kappa, V domains shown)
VH: EVQLVQSGAEVKKPGESLRISCKGSGYTFTNYYVFWIRQSPSRGLEWLGDINPVNGDTNFNEKFKNRVTITADKSTSTAYMELSSLRSEDTAVYYCARGGYTMDYWGQGTLVTVSS
VL: EIVLTQSPATLSVSPGERATLSCRSSQSLVHSNGNTYLHWYQQKPGQAPRLLIYKVSYRFSGVPSRFSGSGSGTDFTFTISSLEAEDAATYYCSQNTHVPRTFGQGTKVEIKR
B7: Clone 17 (pVxK7b-037-hum17-LC / pVxK7b-037-hum17-HC) (antibody, human IgG1, kappa)
heavy: not shown
light: AIQLTQSPSSLSASVGDRVTITCRSSQSLVHSNGNTYLHWYQQKPGQAPRLLIYKVSYRFSGVPDRFSGSGSGTDFTLKISRVEAEDVGVYYCSQNTHVPRTFGQGTKVEIKRTVAAPSVFIFPPSDEQLKSGTASVVCLLNNFYPREAKVQWKVDNALQSGNSQESVTEQDSKDSTYSLSSTLTLSKADYEKHKVYACEVTHQGLSSPVTKSFNRGEC
B8: Clone 16 (pVxK7b-037-hum16-LC / pVxK7b-037-hum16-HC) (antibody, human IgG1, kappa, V domains shown)
VH: QVQLQESGPGLVKPSQTLSLTCTVSGYTFTNYYVFWVRQARGQRLEWIGDINPVNGDTNFNEKFKNRVTISADKSISTAYLQWSSLKASDTAMYYCARGGYTMDYWGQGTLVTVSS
VL: AIQLTQSPSSLSASVGDRVTITCRSSQSLVHSNGNTYLHWYQQKPGQAPRLLIYKVSYRFSGVPDRFSGSGSGTDFTLKISRVEAEDVGVYYCSQNTHVPRTFGQGTKVEIKR

Assays:
[1] = biological target: T1, mouse CD47; assay: cell-based ELISA on mouse 4T1 cells, apparent Kd
Protocol: (§1) OV10 cells are grown in IMDM medium containing 10% heat inactivated fetal bovine serum (BioWest; S01520) and 4T1 cells are grown in RMPI medium containing 10% heat inactivated fetal bovine serum (BioWest; S01520). One day before assay, 3×10⁴ cells are plated in 96 well cell bind plates (Corning #3300, VWR #66025-626) so that they are 95-100% confluent at the time of assay. Cells are washed and various concentrations of purified antibodies added in either IMDM or RPMI at 37° C. for 1 hour in […]. Cells are then washed with media and incubated for an additional hour at 37° C. with HRP labeled secondary anti-human antibody (Promega) diluted 1/2500 in media. Cells are washed three times with PBS, and the peroxidase substrate 3,3′,5,5′-tetramethylbenzidine is added (Sigma; Catalog #T4444). Reactions are terminated by the addition of HCl to 0.7N, and absorbance at 450 nm is determined using a Tecan model Infinite M200 plate reader. The apparent binding affinities of these clones to human and mouse cells is determined by non-linear fits (Prism GraphPad software). […] Agglutination of human RBCs is assessed following incubation of human RBCs with various concentrations of humanized blocking only clones. Blood is diluted (1:50) and washed 3 times with PBS/EDTA/BSA. RBCs are added to U-bottomed 96 well plates with equal volumes of the antibodies (75 μl) and incubated for 3 hrs at 37° C. and overnight at 4° C.

[2] = biological target: T5, human CD47 (human, UniProt Q08722 19-323); assay: cell-based ELISA on human OV10 cells, apparent Kd
T5 construct: whole, on cells; also called CD47 on human RBCs; CD47 on OV10 cells
T5 sequence (Q08722 19-323): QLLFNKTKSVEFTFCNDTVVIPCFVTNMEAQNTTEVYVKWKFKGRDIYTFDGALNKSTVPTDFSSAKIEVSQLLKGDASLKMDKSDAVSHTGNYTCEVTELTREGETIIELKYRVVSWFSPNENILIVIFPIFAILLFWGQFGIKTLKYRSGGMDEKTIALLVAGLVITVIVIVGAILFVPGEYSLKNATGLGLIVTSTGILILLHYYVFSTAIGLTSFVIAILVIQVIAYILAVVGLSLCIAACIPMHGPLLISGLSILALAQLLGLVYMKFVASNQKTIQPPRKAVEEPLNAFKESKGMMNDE
Protocol: as §1

[3] = biological target: T5, human CD47; assay: flow cytometry on RBCs, CHO supernatant 10 ng/ml
Protocol: (§2) RBCs are incubated for 60 minutes on ice with tissue culture supernatants containing the secreted humanized antibodies at a concentration of 10 ng/ml in a solution of phosphate buffered saline, pH 7.2, 2.5 mM EDTA (PBS+E), or with various concentrations of purified antibodies. Cells are then washed with cold PBS+E, and incubated for an additional hour on ice with FITC labeled donkey anti-human antibody (Jackson Immuno Research Labs, West Grove, Pa.; Catalogue #709-096-149) in PBS+E. Cells are then washed with PBS+E, and antibody binding is analyzed using a BD FACSAria Cell Sorter (Becton Dickinson) or a C6 Accuri Flow Cytometer (Becton Dickinson). Antibody binding is quantitated by comparison of mean fluorescence values relative to that of chimeric antibody >VxP037-01LC (SEQ ID NO:7))/>VxPO37-01HC (SEQ ID NO:57). The mean fluorescence value for each antibody is divided by the mean fluorescence value for the chimeric antibody.

[4] = biological target: T1, mouse CD47; assay: flow cytometry on RBCs, CHO supernatant 10 ng/ml
Protocol: as §2

[5] = biological target: T2, rat CD47; assay: flow cytometry on RBCs, CHO supernatant 10 ng/ml
Protocol: as §2

[6] = biological target: T3, pig CD47; assay: flow cytometry on RBCs, CHO supernatant 10 ng/ml
Protocol: as §2

[7] = biological target: T4, dog CD47; assay: flow cytometry on RBCs, CHO supernatant 10 ng/ml
Protocol: as §2

Binder | Kd [1] | Kd [2] | mean fluorescence relative to chimeric antibody [3] | mean fluorescence relative to chimeric antibody [4] | mean fluorescence relative to chimeric antibody [5] | mean fluorescence relative to chimeric antibody [6] | mean fluorescence relative to chimeric antibody [7]
B1 | 0.0949 nM | 0.0962 nM | – | – | – | – | –
B2 | 0.175 nM | 0.15 nM | – | – | – | – | –
B3 | 0.178 nM | 0.108 nM | – | – | – | – | –
B4 | 0.132 nM | 0.115 nM | – | – | – | – | –
B5 | 0.102 nM | 0.0899 nM | – | – | – | – | –
B6 | – | – | 1 ratio | 1.3 ratio | 2.2 ratio | 1.2 ratio | 1.5 ratio
B7 | – | – | 0.8 ratio | 0.9 ratio | 2.1 ratio | 1.3 ratio | 1.3 ratio
B8 | – | – | 0.9 ratio | 1 ratio | 2.1 ratio | 1.1 ratio | 1.1 ratio
